Laboratory results published in patent publication US20250320302A1 (EVOTEC INTERNATIONAL, published 2025).
Like-named read-outs stand apart in the source and are kept apart here.

Columns and labels:
Assay in all cases: cell-based or functional assay
human CD40 [1] = target: T1, human CD40 (human, UniProt P25942 21-277)
[2] = target: T2, human type I IFN receptor on HEK-Blue IFN-α/β cells (human, UniProt P17181 28-557; P48551 27-515)
T2 sequence (looked up) 1: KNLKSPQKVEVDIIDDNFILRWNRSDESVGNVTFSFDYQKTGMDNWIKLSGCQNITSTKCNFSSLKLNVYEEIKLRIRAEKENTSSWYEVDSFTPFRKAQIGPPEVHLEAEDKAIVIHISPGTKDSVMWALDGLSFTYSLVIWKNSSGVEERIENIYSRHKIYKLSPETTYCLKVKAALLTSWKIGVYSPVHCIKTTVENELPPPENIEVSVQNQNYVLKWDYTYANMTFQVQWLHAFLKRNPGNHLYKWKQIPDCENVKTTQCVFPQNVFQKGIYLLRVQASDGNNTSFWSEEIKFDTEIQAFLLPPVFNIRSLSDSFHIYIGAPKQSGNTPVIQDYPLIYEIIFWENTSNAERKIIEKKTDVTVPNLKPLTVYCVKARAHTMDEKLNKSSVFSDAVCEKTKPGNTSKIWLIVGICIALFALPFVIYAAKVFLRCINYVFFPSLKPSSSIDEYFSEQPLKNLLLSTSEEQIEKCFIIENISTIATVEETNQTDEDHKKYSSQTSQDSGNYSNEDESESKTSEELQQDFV
T2 sequence (looked up) 2: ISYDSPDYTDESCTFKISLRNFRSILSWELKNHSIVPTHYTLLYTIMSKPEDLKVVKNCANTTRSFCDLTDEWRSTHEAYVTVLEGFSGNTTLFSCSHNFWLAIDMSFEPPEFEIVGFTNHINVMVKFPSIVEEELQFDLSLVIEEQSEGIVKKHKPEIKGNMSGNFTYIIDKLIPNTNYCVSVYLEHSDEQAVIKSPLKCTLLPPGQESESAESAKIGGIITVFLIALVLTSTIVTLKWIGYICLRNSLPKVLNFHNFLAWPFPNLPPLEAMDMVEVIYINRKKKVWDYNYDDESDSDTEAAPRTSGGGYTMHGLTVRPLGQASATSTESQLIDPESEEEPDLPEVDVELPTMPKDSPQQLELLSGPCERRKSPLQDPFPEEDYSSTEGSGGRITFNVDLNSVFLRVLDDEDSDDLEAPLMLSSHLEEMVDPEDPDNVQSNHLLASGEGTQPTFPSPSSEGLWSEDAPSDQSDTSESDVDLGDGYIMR

[3] = target: human IFNλ receptor on HEK-Blue IFN-λ cells (human)
human CD40 [4] = target: T1, human CD40; remark: listed apart in the source
human CD40 [5] = target: T1, human CD40; remark: listed apart in the source
[6] = target: human IFNγ receptor on HEK-Blue IFN-γ cells (human)

T1 sequence (P25942 21-277): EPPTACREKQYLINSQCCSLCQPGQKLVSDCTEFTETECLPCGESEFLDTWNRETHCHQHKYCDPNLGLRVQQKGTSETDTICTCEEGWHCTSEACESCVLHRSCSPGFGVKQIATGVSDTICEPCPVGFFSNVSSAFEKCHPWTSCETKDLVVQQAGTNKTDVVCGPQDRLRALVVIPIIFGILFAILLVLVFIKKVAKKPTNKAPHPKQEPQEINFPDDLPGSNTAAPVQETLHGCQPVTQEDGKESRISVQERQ

Binder | CD40 EC50 (HEK-Blue CD40L NFκB-SEAP reporter cells) (human CD40 [1]) [ng/mL] | IFNβ EC50 (HEK-Blue IFN-α/β SEAP reporter cells) [2] [ng/mL] | CD40 EC50 (HEK-Blue CD40L NFκB-SEAP reporter cells) (human CD40 [4]) [ng/mL] | also measured
IFA106 (antibody, human IgG2, kappa) heavy: QVQLVESGGGVVQPGKSLRLSCAASGFTFSSNGIHWVRQAPGKGLEWVAVIWSDGSNKFYADSVKGRFTISRDNSKNTLYLQMNSLRAEDTAVYYCARASGSGSYYNFFDYWGQGTLVTVSSASTKGPSVFPLAPCSRSTSESTAALGCLVKDYFPEPVTVSWNSGALTSGVHTFPAVLQSSGLYSLSSVVTVPSSNFGTQTYTCNVDHKPSNTKVDKTVERKCCVECPPCPAPPVAGPSVFLFPPKPKDTLMISRTPEVTCVVVDVSHEDPEVQFNWYVDGVEVHNAKTKPREEQFNSTFRVVSVLTVVHQDWLNGKEYKCKVSNKGLPAPIEKTISKTKGQPREPQVYTLPPSREEMTKNQVSLTCLVKGFYPSDIAVEWESNGQPENNYKTTPPMLDSDGSFFLYSKLTVDKSRWQQGNVFSCSVMHEALHNHYTQKSLSLSPGPAPASYNLLGFLQRSSNFQCQKLLWQLNGRLEYCLKDRMNFDIPEEIKQLQQFQKEDAALTIYEMLQNIFAIFRQDSSSTGWNETIVENLLANVYHQINHLKTVLEEKLEKEDFTRGKLMSSLHLKRYYGRILHYLKAKEYSHCAWTIVRVEILRNFYFINRLTGYLRN light: not shown | 190 | 10.3 |  | 
IFA107 (antibody, human IgG2, kappa) heavy: QVQLVESGGGVVQPGKSLRLSCAASGFTFSSNGIHWVRQAPGKGLEWVAVIWSDGSNKFYADSVKGRFTISRDNSKNTLYLQMNSLRAEDTAVYYCARASGSGSYYNFFDYWGQGTLVTVSSASTKGPSVFPLAPCSRSTSESTAALGCLVKDYFPEPVTVSWNSGALTSGVHTFPAVLQSSGLYSLSSVVTVPSSNFGTQTYTCNVDHKPSNTKVDKTVERKCCVECPPCPAPPVAGPSVFLFPPKPKDTLMISRTPEVTCVVVDVSHEDPEVQFNWYVDGVEVHNAKTKPREEQFNSTFRVVSVLTVVHQDWLNGKEYKCKVSNKGLPAPIEKTISKTKGQPREPQVYTLPPSREEMTKNQVSLTCLVKGFYPSDIAVEWESNGQPENNYKTTPPMLDSDGSFFLYSKLTVDKSRWQQGNVFSCSVMHEALHNHYTQKSLSLSPGPAPASYNLLGFLQRSSNFQSQKLLWQLNGRLEYCLKDRMNFDIPEEIKQLQQFQKEDAALTIYEMLQNIFAIFRQDSSSTGWNETIVENLLANVYHQINHLKTVLEEKLEKEDFTRGKLMSSLHLKRYYGRILHYLKAKEYSHCAWTIVRVEILRNFYFINRLTGYLRN light: not shown | 142 | 2.03 |  | 
IFA44 (antibody, human IgG2, kappa) light: DIQMTQSPSSVSASVGDRVTITCRASQGIYSWLAWYQQKPGKAPNLLIYTASTLQSGVPSRFSGSGSGTDFTLTISSLQPEDFATYYCQQANIFPLTFGGGTKVEIKRTVAAPSVFIFPPSDEQLKSGTASVVCLLNNFYPREAKVQWKVDNALQSGNSQESVTEQDSKDSTYSLSSTLTLSKADYEKHKVYACEVTHQGLSSPVTKSFNRGECGGGGSGGGGSGGGGSGGGGSVPVARLHGALPDARGCHIAQFKSLSPQELQAFKRAKDALEESLLLKDCRCHSRLFPRTWDLRQLQVRERPMALEAELALTLKVLEATADTDPALVDVLDQPLHTLHHILSQFRACIQPQPTAGPRTRGRLHHWLYRLQEAPKKESPGCLEASVTFNLFRLLTRDLNCVASGDLCV heavy: not shown |  |  | 41.4 | IFNλ EC50 (HEK-Blue IFNλ reporter cells) [3]: 0.153 ng/mL
IFA45 (antibody, human IgG2, kappa) heavy: not shown light: DIQMTQSPSSVSASVGDRVTITCRASQGIYSWLAWYQQKPGKAPNLLIYTASTLQSGVPSRFSGSGSGTDFTLTISSLQPEDFATYYCQQANIFPLTFGGGTKVEIKRTVAAPSVFIFPPSDEQLKSGTASVVCLLNNFYPREAKVQWKVDNALQSGNSQESVTEQDSKDSTYSLSSTLTLSKADYEKHKVYACEVTHQGLSSPVTKSFNRGEC |  |  | 25.8 | IFNλ EC50 (HEK-Blue IFNλ reporter cells) [3]: < 0.001 ng/mL
CP870,893 (antibody, human IgG2, kappa) heavy: not shown light: DIQMTQSPSSVSASVGDRVTITCRASQGIYSWLAWYQQKPGKAPNLLIYTASTLQSGVPSRFSGSGSGTDFTLTISSLQPEDFATYYCQQANIFPLTFGGGTKVEIKRTVAAPSVFIFPPSDEQLKSGTASVVCLLNNFYPREAKVQWKVDNALQSGNSQESVTEQDSKDSTYSLSSTLTLSKADYEKHKVYACEVTHQGLSSPVTKSFNRGEC |  |  |  | CD40 EC50 (HEK-Blue CD40L NFκB-SEAP reporter cells) (human CD40 [5]): 30 to 80 ng/mL; CD40 EC50, mean (HEK-Blue CD40L NFκB-SEAP reporter cells) (human CD40 [5]): 48 ng/mL; CD40 EC50 in the experiment of FIG. 3 (HEK-Blue CD40L NFκB-SEAP reporter cells) (human CD40 [5]): 57 ng/mL
IFA42 (antibody, human IgG2, kappa) light: DIQMTQSPSSVSASVGDRVTITCRASQGIYSWLAWYQQKPGKAPNLLIYTASTLQSGVPSRFSGSGSGTDFTLTISSLQPEDFATYYCQQANIFPLTFGGGTKVEIKRTVAAPSVFIFPPSDEQLKSGTASVVCLLNNFYPREAKVQWKVDNALQSGNSQESVTEQDSKDSTYSLSSTLTLSKADYEKHKVYACEVTHQGLSSPVTKSFNRGECGGGGSGGGGSGGGGSGGGGSQDPYVKEAENLKKYFNAGHSDVADNGTLFLGILKNWKEESDRKIMQSQIVSFYFKLFKNFKDDQSIQKSVETIKEDMNVKFFNSNKKKRDDFEKLTNYSVTDLNVQRKAIHELIQVMAELSPAAKTGKRKRSQMLFRGRRASQ heavy: not shown |  |  | 65.6 | IFNγ EC50 (HEK-Blue IFNγ reporter cells) [6]: 15.4 ng/mL
3G5 (antibody, human IgG2, kappa) heavy: QVQLVESGGGVVQPGKSLRLSCAASGFTFSSNGIHWVRQAPGKGLEWVAVIWSDGSNKFYADSVKGRFTISRDNSKNTLYLQMNSLRAEDTAVYYCARASGSGSYYNFFDYWGQGTLVTVSSASTKGPSVFPLAPCSRSTSESTAALGCLVKDYFPEPVTVSWNSGALTSGVHTFPAVLQSSGLYSLSSVVTVPSSNFGTQTYTCNVDHKPSNTKVDKTVERKCCVECPPCPAPPVAGPSVFLFPPKPKDTLMISRTPEVTCVVVDVSHEDPEVQFNWYVDGVEVHNAKTKPREEQFNSTFRVVSVLTVVHQDWLNGKEYKCKVSNKGLPAPIEKTISKTKGQPREPQVYTLPPSREEMTKNQVSLTCLVKGFYPSDIAVEWESNGQPENNYKTTPPMLDSDGSFFLYSKLTVDKSRWQQGNVFSCSVMHEALHNHYTQKSLSLSPG light: not shown |  |  |  | CD40 EC50, mean (HEK-Blue CD40L NFκB-SEAP reporter cells) (human CD40 [5]): 9.3 ng/mL
IFA108 (antibody, human IgG2, kappa) heavy: QVQLVESGGGVVQPGKSLRLSCAASGFTFSSNGIHWVRQAPGKGLEWVAVIWSDGSNKFYADSVKGRFTISRDNSKNTLYLQMNSLRAEDTAVYYCARASGSGSYYNFFDYWGQGTLVTVSSASTKGPSVFPLAPCSRSTSESTAALGCLVKDYFPEPVTVSWNSGALTSGVHTFPAVLQSSGLYSLSSVVTVPSSNFGTQTYTCNVDHKPSNTKVDKTVERKCCVECPPCPAPPVAGPSVFLFPPKPKDTLMISRTPEVTCVVVDVSHEDPEVQFNWYVDGVEVHNAKTKPREEQFNSTFRVVSVLTVVHQDWLNGKEYKCKVSNKGLPAPIEKTISKTKGQPREPQVYTLPPSREEMTKNQVSLTCLVKGFYPSDIAVEWESNGQPENNYKTTPPMLDSDGSFFLYSKLTVDKSRWQQGNVFSCSVMHEALHNHYTQKSLSLSPGAEAAAKEAAAKASYNLLGFLQRSSNFQCQKLLWQLNGRLEYCLKDRMNFDIPEEIKQLQQFQKEDAALTIYEMLQNIFAIFRQDSSSTGWNETIVENLLANVYHQINHLKTVLEEKLEKEDFTRGKLMSSLHLKRYYGRILHYLKAKEYSHCAWTIVRVEILRNFYFINRLTGYLRN light: not shown | 37.3 | 1.27 |  | 
IFA109 (antibody, human IgG2, kappa) heavy: QVQLVESGGGVVQPGKSLRLSCAASGFTFSSNGIHWVRQAPGKGLEWVAVIWSDGSNKFYADSVKGRFTISRDNSKNTLYLQMNSLRAEDTAVYYCARASGSGSYYNFFDYWGQGTLVTVSSASTKGPSVFPLAPCSRSTSESTAALGCLVKDYFPEPVTVSWNSGALTSGVHTFPAVLQSSGLYSLSSVVTVPSSNFGTQTYTCNVDHKPSNTKVDKTVERKCCVECPPCPAPPVAGPSVFLFPPKPKDTLMISRTPEVTCVVVDVSHEDPEVQFNWYVDGVEVHNAKTKPREEQFNSTFRVVSVLTVVHQDWLNGKEYKCKVSNKGLPAPIEKTISKTKGQPREPQVYTLPPSREEMTKNQVSLTCLVKGFYPSDIAVEWESNGQPENNYKTTPPMLDSDGSFFLYSKLTVDKSRWQQGNVFSCSVMHEALHNHYTQKSLSLSPGAEAAAKEAAAKASYNLLGFLQRSSNFQSQKLLWQLNGRLEYCLKDRMNFDIPEEIKQLQQFQKEDAALTIYEMLQNIFAIFRQDSSSTGWNETIVENLLANVYHQINHLKTVLEEKLEKEDFTRGKLMSSLHLKRYYGRILHYLKAKEYSHCAWTIVRVEILRNFYFINRLTGYLRN light: not shown | 30 | 0.45 |  | 
